The text below walks through data of article PMC9032829.

Several values for one entry are separate records, joined by “and”; a condition that tells them apart may be missing. Equal values may be shown once.

For the experiment, the target named is entire receptor binding domain (RBD) of SARS-CoV-2 Spike protein (SARS-CoV-2) (UniProt P0DTC2). Briefly: SPR. For orientation: Surface plasmon resonance follows binding to a sensor surface in real time, without labels.

Turning to “soluble αvβ3 integrin (from UniProt P06756;P05106) (complex)”, the Kd (in general, a measure of binding affinity in units of concentration) is 6.3 nM and 59.3 nM.
